Data from paper PMC3646564 (Cell, 2013).

Columns and labels:
[1] = target: D. radiodurans PNPase lacking the KH domain (D. radiodurans) (UniProt Q9RSR1); test: native gel or EMSA + other: negative stain electron microscopy
[2] = target: D. radiodurans PNPase lacking the S1 domain (D. radiodurans) (UniProt Q9RSR1); test: as above
[3] = target: the molecule itself; test: glycerol gradient sedimentation

Q: “D. radiodurans PNPase lacking the KH domain (from UniProt Q9RSR1 1-779) (enzyme)” was tested. Which stoichiometry N [1] did it give?
A: 3

Q: “D. radiodurans PNPase lacking the S1 domain (from UniProt Q9RSR1 1-779) (enzyme)” was tested. Which stoichiometry N [2] did it give?
A: 3

B1: Salmonella Typhimurium PNPase fused to 3 copies of FLAG (FLAG3-pnp) (enzyme, S. Typhimurium, UniProt Q8ZLT3 1-711, looked up)
chain: MLNPIVRKFQYGQHTVTLETGMMARQATAAVMVSMDDTAVFVTVVGQKKAKPGQDFFPLTVNYQERTYAAGRIPGSFFRREGRPSEGETLIARLIDRPVRPLFPEGFVNEVQVIATVVSVNPQVNPDIVAMIGASAALSLSGIPFNGPIGAARVGYINDQYVLNPTQDELKESKLDLVVAGTEAAVLMVESEAELLSEDTMLGAVVFGHEQQQVVIQAINDLVKEAGKPRWDWQPEAVNDALNARVAALAESRLSDAYRITDKQERYAQVDVIKSETIEQLIAEDETLDANELGEILHAIEKNVVRSRVLAGEPRIDGREKDMIRGLDVRTGVLPRTHGSALFTRGETQALVTATLGTARDAQVLDELMGERTDSFLFHYNFPPYSVGETGMVGSPKRREIGHGRLAKRGVLAVMPDMDKFPYTVRVVSEITESNGSSSMASVCGASLALMDAGVPIKAAVAGIAMGLVKEGDNYVVLSDILGDEDHLGDMDFKVAGSRDGISALQMDIKIEGITKEIMQVALNQAKGARLHILGVMEQAINAPRGDISEFAPRIHTIKISTDKIKDVIGKGGSVIRALTEETGTTIEIEDDGTVKIAATDGEKAKYAIRRIEEITAEIEVGRIYNGKVTRIVDFGAFVAIGGGKEGLVHISQIADKRVEKVTDYLQMGQEVPVKVLEVDRQGRVRLSIKEATEQSQPAAAPEAPASEQAE
Q: B1 was tested. Which “stoichiometry N” value [3] did it give?
A: 3
